Reference: a protein production outcome set (Wang et al. 2014)

Assay: label from the status in PepcDB records

**Q.** For “MFDQYRKTILAGAVALTCGLTAASTFAAGFQPAQPAGKLGAVVVDPYGNAPLTALVELDSHIISDVKVTVHGKGEKGVPVTYTVGKESLETYDGIPIFGLYQKFANNVTVEYKENGKAMKDDYVVQTSAIVNHYMDNRSISDLQQTKVIKVAPGFEDRLYLVNTHTFTPQGAEFHWHGEKDKNAGILDAGPAGGALPFDIAPYTFVVDTQGEYRWWLDQDTFYNGHDMNINKRGYLMGIRETPRGTFTAVQGQHWYEFDMMGQVLADHKLPRGFLDASHESIETVNGTVLLRVGKRDYRKEDGIHVHTIRDQIIEVDKSGRVVDVWDLTKILDPMRDALLGALDAGAVCVNVDLAHAGQQAKLEPDTPYGDALGVGAGRNWAHVNSIAYDAKDDSIILSSRHQGIVKIGRDKQVKWILAPSKGWNKQLASKLLKPVDDHGKPLTCDENGKCKDTDFDFTYTQHTAWLSSKGTLTVFDNGDGRGLEQPALPTMKYSRFVEYKIDEKKGTVQQVWEYGKERGYDFYSPITSVVEYQKDRDTMFGFGGSINLFDVGKPTVGKLNEIDYKTKEVKVEIDVLSDKPNQTHYRALLVHPTQMFK”, which protein production is on record?
**A.** failed

**Q.** For “MYQTIEGFLQSWTYETESTQKMLDVLTDESLSQEIAPGHWTLGRVAWHIVTAIPVILSGTGLKFEGETKDYPVPTSAKTIADGYRKVNTAFVEALQSEWTDKDLTTINDFFGRPMPNSIFLMTLINHQNHHRGQMTVLMRQAGLTVPGVYGPAKEEWATAGMEAPKM”, which protein production is on record?
**A.** not failed

**Q.** For “MSVPDNVYLIGTMNTADRSLAGLDIALRRRFDFVEMAPRPDKLTGVKVAEIDISAVLETMNRRIEVLLDREHRLGHAYFMSLENSNDLSRLSNIFRQQIIPLLQEYFFEDWQRIAWILNDHRKDERFRFIVPAPYSVDSLFGDTGQVAQDSKAWRMNEEAFHKPLEHHHHHH”, which protein production is on record?
**A.** failed

**Q.** With “MTENGRYEYIVIGSEAAGVGLVRELTAAGKKVLAVDKSKEKIELLEDEGFDAVIADPTDESFYRSLDLEGVSAVLITGSDDEFNLKILKALRSVSDVYAIVRVSSPKKKEEFEEAGANLVVLVADAVKQAFMDKIKKMETL” as the sequence, how does the protein production read?
**A.** not failed

**Q.** For “MIKKIHRWLPLLVLIGLLVLFFSLHLDKYLSFNALRENHALLIAWTQTHYFIAPLIFIVFYTTAVAISIPGAVLLTLTGGFLFGVFWGVLFVVISATLGATILFFAVRTALGDWFAQKASGWIERMRQGFQHNAFSYLVTLRLIPLFPFWAVNIVPALLNIRAKTFITATFIGIIPGTTVYVMVGNGLSQIFAANQTPNLGIIFELQILGPLLALAVLSLMPVLYQFSTRKHQNHHSFSDISRVINCDLAIIGGGAGGLSLASGCSQLGLKVVLVESGKMGGDCLNYGCIPSKSLLAAAKTFYYAKHATHFGVHTEAIKINFQQVMQHVHQIIDNISEHDSVQRFESLGVQVIKQVGKFLNPDTLQAGDSIIKAKRFVVATGSSPFIPPIPGLDAVSYFTNETIFDLKEQPEHLIVIGGGPIGCELAQAFAMLGSKVTLLEGLNLLPKDDPDCVAVLRTQMKSMSIVIHEQIEITQINSHPDTGISVCFEFQNTQFTITASHLLIATGRRANVKPLDLEKAGVKLTSKGVEVNKYLQTSNKKIYALGDVTGLYQFTHMASYQASIVLRNIVFKLPSKVDYRAIPWVTYTDPELAHVGIGVSDALKHPDAQIIEWPFVDNDRAQTERSLNGKIKIITDKKARILGVTIVGPHAGELILPWVMAIREKKNLRSFTDVIVPYPTLSEISKRVAGSFYAPKLFSNKTRMLVRWLQKIG”, which protein production is on record?
**A.** failed

**Q.** Which protein production does the source give for “MGRVYLVGAGPGDPELLTLKAYRLLKEAPVVLYDRLVDERVLALAPGEKVYVGKEEGESEKQEEIHRLLLRHARAHPFVVRLKGGDPMVFGRGGEEVLFLLRHGVPVEVVPGVTSLLASGLPLTHRGLAHGFAAVSGVLEGGGYPDLRPFARVPTLVVLMGVGRRVWIAKELLRLGRDPREPTLFVERASTPKERRVHARLEEVAEGKVEVRPPALWILGEVVRVFAEKEAPVDALALGG” here?
**A.** not failed

**Q.** Which protein production does the source give for “MSWENPGPPKRADARRNYDRIIEAAAAEVARHGADASLEEIARRAGVGSATLHRHFPSRWGLLQAVFQERVAQLCDEARSLAAEHPPATALTRWLTSLAVFGAVTRGAARSLLPATGTNTGAALDSRCEQLLTEAGADLLARAQEDGTVRDDVTALELLSLANAVSLAAEHTPDAAHHATRLMGIALGGLGAPGPRPQG” here?
**A.** not failed

**Q.** With “MSSECDGGSKAVMNGLAPGSNGQDKDMDPTKICTGKGAVTLRASSSYRETPSSSPASPQETRQHESKPGLEPEPSSADEWRLSSSADANGNAQPSSLAAKGYRSVHPNLPSDKSQDSSPLLNEVSSSLIGTDSQAFPSVSKPSSAYPSTTIVNPTIVLLQHNREQQKRLSSLSDPVSERRVGEQDSAPTQEKPTSPGKAIEKRAKDDSRRVVKSTQDLSDVSMDEVGIPLRNTERSKDWYKTMFKQIHKLNRDDDSDLYSPRYSFSEDTKSPLSVPRSKSEMSYIDGEKVVKRSATLPLPARSSSLKSSSERNDWEPPDKKVDTRKYRAEPKSIYEYQPGKSSVLTNEKMSRDISPEEIDLKNEPWYKFFSELEFGKPTNLDKDLSLCQTELEADLEKMETLNKAPSANVPQSSAISPTPEISSETPGYIYSSNFHAVKRESDGAPGDLTSLENERQIYKSVLEGGDIPLQGLSGLKRPSSSASTKVHSRTFNTSNALGPVCKHKKPLSAAKACISEILPSKFKPRLSAPSALLQEQKSILLPSEKAQSCENLCVSGSLNDSKRGLPLQVGGSIENLLMRSRRDYDSKSSSTMSLQEYSTSGRRPCPLSRKAGMQFTMLYRDMHQINRSGLFLGSISSSSSVRDLASHFEKSSLALSRGELGPSQEGSEHIPKHTVSSRITAFEQLIQRSRSMPSLDLSGRLSKSPTPVLSRGSLTSARSAESLLESTKLHPKEMDGMNSSGVYASPTCSNMAHHALSFRGLVPSEPLSTCSDDVDRCSNISTDSREGSGGSVHGDFPKHRLNKCKGTCPASYTRFTTIRKHEQQQTSRQPEWRLDARGDKSTLLRNIYLMSPLPFRLKKPLHHHPRQPSPGDSSGLLVGQKPDLPSQPHQDQPPSGGKPVVPTRLSSRHTMARLSRSSEPSQERPTALEDYPRAINNGNSVPYSDHSLDRNNNPQSELAPSRGDSESPRHFIPADYLESTEEFIRRRHDDKEMRPARAKFDFKAQTLKELPLQKGDIVYIYKQIDQNWYEGEHHGRVGIFPRTYIELLPPAEKAQPKKLTPVQVLEYGEAIAKFNFNGDTQVEMSFRKGERITLLRQVDENWYEGRIPGTSRQGIFPITYVDVIKRPLVKNPVDYMDLPFSSSPSRSATASPQQPQAQQRRVTPDRSQTSQDLFSYQALYSYIPQNDDELELRDGDIVDVMEKCDDGWFVGTSRRTKQFGTFPGNYVKPLYL” as the sequence, how does the protein production read?
**A.** not failed

**Q.** With “MPLDAPPLLPSADSDSTVSILQAKGDAPPAAATAAVGWPLLALTTWFGSGLIPLAPGTMGSIAALPFAWAIAWTWGPWALAPAAALVFVIGTLAAEAHVRRSGEKDPQRIVIDEVAGQWLTLAVAPLDPLAYGVGLVLFRICDITKPWPACWADRSVPGGFGIMLDDGFAAVYSTCMMALYVHYFM” as the sequence, how does the protein production read?
**A.** failed

**Q.** For “MDVAIELTTRVGVLLFFIAICHVIAQRVRLPDPIILTAAGVTIGFGYVALEHVAPAFAANTIAPFLSPAMPPEAYLWIFLPPILFQAAIEVDSSGFVADLGPILLLAIGAVVAATLSVGAVAYLTSGQGLIACLLLGAIVSTTDPSTVIGLFQSSGAPARLIRLVEGESLFNDAAAIAITTLLTGVISVMPTHDAAHFPLAQFLLSLLGGCAVGWLVGVVLVFVSGAMRSPPFAEYSLSLALPNLIYPFAERVLHVSGVAAVVCAGLVVGRIMLSRRPASHVKLFRQLWLYQATIASASVLLLATAHVPSLLDDLRMIDVVILLLVLVAAVASRFGILSVSMPMMSRIGICKPLPVSHQLLIAWGGVRGPVTLTLAICLARNQDLAPDTRHFAAAMAAGFVLLNLFFNGLTLKLFARWLGVAAPGGRRPAAIEVD”, which protein production is on record?
**A.** failed

**Q.** With “MAAITEFLPKEYGYVVLVLVFYCFLNLWMGAQVGRARKRYNVPYPTLYAIESENKDAKLFNCVQRGHQNSLEMMPMYFILMILGGMKHPCICTGLGLLYNVSRFFYFKGYATGDPMKRLTIGKYGFLGLLGLMICTISFGVTLILA” as the sequence, how does the protein production read?
**A.** failed

**Q.** Which protein production does the source give for “HIQKGIAGEQKACAFLEQQGYKIIEKNLRIGKGEIDLIAVHNNCMCFIEVKYRKHNRYGFPEEFVTQKKLLKIQETAEAYIYTVNWQGRIRFDVVAITGEELPVHL” here?
**A.** failed

**Q.** For “MRPRLGLLDASVLSFAVLPTDLDFNRHMTNARYLSLMDLGRLDLILRSGMWRLVLRQSLQPVIGGALVRFRHALRPFQPFRLTTRVLAWDARWLFIEHRVETLDGKPACTAVVRAAFVASTGMLPTADLLTRLGYGGAAPDVPAWIAPWLQADLACQPLEHHHHHH”, which protein production is on record?
**A.** failed

**Q.** For “MAPKAGKKPAEKKPAEKAPAEEEKVAEKAPAEKKPKAGKKLPKEAVTGGVEKKKKRVKKSTETYKIYIFKVLKQVHPDIGISSKAMGIMNSFINDIFEKLAQEASKLARYNKKPTITSREIQTAVRLVLPGELAKHAVSEGTKAVTKFTSS”, which protein production is on record?
**A.** failed

**Q.** With “MAIKSISSSLLTRVLSVYFLLTLIVTAIQIGAEYFDTKRVLIAELQNQQSTFNGSLTRSLWEFNSNQIDTIADGLISIPAIAGVLIRDDAGNILVQLGETTEMSDLPDDNSEGALLPERNGIFGYYDSLIFEFSGHSTKVGDVSLFSTRDIAIDRIKVSLGFIIGNAIIKSIFLIVLFTIAFNRMLNRPLSDLTQQIKGFRLDNLERSRIRLDDQHNNELVLVEQAYNQLLDNIEEYQSDLDRTQKKLKAANRQLDEQNAILEQEVARKTSSLSQVMLDLEQRKNELEMRQEKLEREVGQRRAIENTLRQSNQRLESSLNNLRETQQQLIESEKMASLGGLVAGITHDVNTPIGISVTASSYLREKLDTLDQSLLNKELTQTQLKKFIEEGRESLNLLDSNLHRASDLISSFKQVAVDQASDAIRDINLKSYIEDLVQSLQPHLKKTNHQVRLECADDIFIRCPAGALSQIFTNLILNSLRHAFDGISEGLMIISIRLDGETLQVHYSDNGNGLSEAQLKRLFDPFFTTKRDQGGSGLGTHIVRNLVTQTLSGEISAESEPGKGLSYFFSFSVQVLN” as the sequence, how does the protein production read?
**A.** failed

**Q.** For “MTQPEETPVSFIPSNFIEKGKILNGTFDIRNAIESIVLSLAIGIPVFHLPLSLTARIIILCMTALPAAMVALIGIGGESITAFLMNALRFVVNRRVIWRSDSLPEGKPRRKPRFKEPKTKKHRKAEKMAEPSKVMASAPPQSEPDAPAPPKSKKKEHRQFDTSTKRGIKKQAKEDIRYLKWEQKEASRQKKEAAKQIKIQKKTEARRRKEEEKRAVSEKRAAKKEQKKKVVSKEDTSSATSKPVSRKKRKKDQTLEDYLPVEKIANGIVYTTDGRYVKILEIEPINFLLRSAREQQGIIYSFISYLKISPVKLQIKMISKKADINKHLEQSQLELERETDPHCQELQRDYIQFVQNLSSREAVSRRFFLIFEYEPFNANRKEEEREILAALETASQTAKTFLYQCGNEVVSHDNEDEFTTDVLYTLLNRTLCTEVPLSNRISTVLSAYTKENRMEELDHIRINEFLAPESVDFKHSHYVQINGLYHSYLLVPSDGYKNRVTPGWLSLLVNAGEGIDIDFFLQKQPKDKIQQRLGQQIRINRSKLKDASDTNTDYDDLDSAIRSGYFLKQGLANNEDFYYMNLLITITASTLEELQWRIQEMKKLLISQDMNLHSCYFLQEQGFLSSLPLANLDKKLFKLSKRNVLTSGAASCYPFVSYSICDDNGILFGVNKHNNSLVIADIFDSRQYKNSNICILGCSGAGKTFTMQTMALRMRRKGIQVFIIAPLKGHEFYRAARNVGGEFIQISPASKNCINIMEIRKVDNSVNELLDGPTLDASALAGKIQRLHIFFSLLIPDMSHEEKQLLDEALIKTYARKGITHKNESLTDPQHPEQYKKMPILEDVYNVLLESEDTKRLAHILNRLVHGSASSFNQQTNVDLTNKYTVLDISELTGSSDLLTVGMFVALDYVWDKAKENRTEEKAIFVDEVWQLIGASSNRLAAEFVLEIAKIIRAYSGAGIFATQDLNDFFALDDGKYGKGIINNCKTKIILNMEDEEAQRVKTILHLSETEVMNITHFQRGNGLISTNNNNITVEFKASNLEKELITTERQELLEILAKQKKQAV”, which protein production is on record?
**A.** failed

**Q.** For “MEVKIEKPTPEKLKELSVEKWPIWEKEVSEFDWYYDTNETCYILEGKVEVTTEDGKKYVIEKGDLVTFPKGLRCRWKVLEPVRKHYNLF”, which protein production is on record?
**A.** not failed
